Experimental data from patent US20260070976A1 (Alector, published 2026).
Positions count from the first letter of the chain named.

B1: X1 (antibody, V domains shown)
VH: QVQLVQSGAEVKKPGSSVKVSCKASGYNFLHYDVNWVRQAPGQGLEWMGGIIPIFGTANYAQKFQGRVTITADESTSTAYMELSSLRSEDTAVYYCATAVGAGWFDTWGQGTLVTVSS
VL: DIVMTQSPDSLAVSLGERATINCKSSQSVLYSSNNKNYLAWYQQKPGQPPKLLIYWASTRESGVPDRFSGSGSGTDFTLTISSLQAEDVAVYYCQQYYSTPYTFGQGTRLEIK
notes: conditioned media in the HEK293F assays
B2: X2 (antibody, V domains shown)
VH: B1 VH with T107P
VL: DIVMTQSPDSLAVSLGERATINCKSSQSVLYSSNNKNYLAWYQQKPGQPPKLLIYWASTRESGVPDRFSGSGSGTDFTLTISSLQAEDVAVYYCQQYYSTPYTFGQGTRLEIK
notes: as for B1
B3: X11 (antibody, human IgG4, V domains shown)
VH: B1 VH with H31N, A99G, T107P
VL: DIVMTQSPDSLAVSLGERATINCKSSQSVYFSENNKNYLAWYQQKPGQPPKLLIYWASTRESGVPDRFSGSGSGTDFTLTISSLQAEDVAVYYCQQYYEEPYTFGQGTRLEIK
notes: as for B1
B4: X18 (antibody, human IgG4, V domains shown)
VH: B1 VH
VL: B3 VL with Y30W, S32D, E33P, Y98F
notes: as for B1

Legend:
[1] = molecular target: T1, recombinant cynomolgus PILRA (SEQ ID NO:120) (cynomolgus monkey); test: SPR, Carterra LSA, antibody amine-coupled, kinetic fit
T1 construct: also called cyno PILRA
Experimental: (§1) Binding kinetics of human anti-PILRA-IgG4 antibodies were evaluated by surface plasmon resonance (SPR) using a Carterra LSA instrument (Carterra, Salt Lake City, UT). Antibodies were immobilized in duplicate arrays onto an HC30M sensor chip (Carterra) by amine coupling according to the manufacturer's protocol. After priming the immobilized antibodies with HBS-EP+ (Teknova, Hollister, CA, #8022) running buffer with 0.5 mg/mL BSA (MP Biomedicals LLC, #820451), the immobilized antibodies were tested for their ability to bind to recombinant human PILRA (SEQ ID NO:1) and cynomolgus PILRA (SEQ ID NO:120) and to human PILRB (SEQ ID NO:105) and cynomolgus PILRB (SEQ ID NO:121).
(§2) For binding kinetics analysis, human and cynomolgus PILRA and PILRB analytes were diluted in running buffer to 440 to 470 nM, and diluted 3-fold serially five times, to 1.8 to 1.9 nM, and injected for five minutes over the entire chip using the single channel flow cell to measure association of binding to the immobilized antibodies. Dissociation of the analytes was measured for five minutes, followed by regeneration of the chip with two 30-second injections of 10 mM glycine pH 2.0.

[2] = molecular target: T2, recombinant human PILRA (human, UniProt Q9UKJ1 20-197); test: as above
Experimental: as §1, §2

[3] = molecular target: T3, human PILRA G78 on HEK293F cells (human, UniProt Q9UKJ1 20-303); test: hA Kd of Table 9; method not stated (Example 8: HEK293F overexpressing cells, FACS)
T3 construct: also called hA; G78 OE

[4] = molecular target: T3, human PILRA G78 on HEK293F cells; test: flow cytometry blocking assay; antibody on HEK293F cells overexpressing human PILRA G78, then 5 ug/mL NPDC1 Fc as the blocked ligand; cell-bound NPDC1 Fc read as MFI
Experimental: A dose response curve of antibodies X0 (PA-29), X1, X2, X7, X11, X12, X13, X14, X16, X18, and X20 was assessed for modulating the binding of Neural Proliferation Differentiation and Control Protein 1 (NPDC1) Fc to 293 cells ectopically expressing human PILRA (HEK293F human PILRA G78 overexpressing cells). Conditioned media samples containing antibodies were incubated with human PILRA overexpressing cells for 30 minutes at 4° C., and then 5 μg/mL NPDC1 Fc was added to this mixture. After 30 minutes of incubation at 4° C., the cells were washed and cell-bound NPDC1 Fc was detected with anti-human IgG Alexa Fluor 647. The cells were analyzed by flow cytometry on FACS Canto II with the percentage of NPDC1 Fc binding in the presence of conditioned media relative to NPDC1 Fc binding alone was calculated. […] All tested antibodies decreased binding of NPDC1 to human PILRA.

[5] = molecular target: T4, cell surface PILRA on human monocytes (human, UniProt Q9UKJ1 20-303); test: flow cytometry; Alexa Fluor 647-conjugated antibody on human CD14+ monocytes (second donor sample), Fc receptors blocked, 30 min on ice
T4 construct: Native PILRA on CD14+ monocytes of healthy donors; also called human PILRA; hu mono
Experimental: (§3) Anti-human PILRA antibodies X0 (PA-29) and its affinity matured variants were tested for their abilities to bind cell surface PILRA on human and cynomolgus monocytes. CD14+ monocytes were isolated from healthy human donors using a RosetteSep Human Monocyte Enrichment Cocktail kit (StemCell). Cynomolgus white blood cells were collected from cynomolgus whole blood. In both human and cynomolgus samples, the Fc receptor on the tested monocytes was blocked and the monocytes were treated with Alexa Fluor 647-conjugated PILRA antibodies for 30 minutes on ice. A dose response curve of antibodies X0 (PA-29), X1, X2, X7, X11, X12, X13, X14, X16, X18, and X20 was tested for binding to cell surface PILRA in human and cynomolgus monocytes, and antibodies bound to PILRA in a dose response manner. In another sample of human donor monocytes, a dose response curve of antibodies X0 (PA-29), X1, X2, X11, X13, X18, X29 (PA-43), and X34 (A6) was tested for binding to cell surface PILRA in human and cynomolgus monocytes, and antibodies bound to PILRA in a dose response manner.

[6] = molecular target: T5, cynomolgus PILRA on HEK293F cells (cynomolgus monkey, UniProt A0A7N9CRU1 20-292); test: cA Kd of Table 9; method not stated (Example 8: HEK293F overexpressing cells, FACS)
[7] = molecular target: T4, cell surface PILRA on human monocytes; test: cell-based or functional assay
[8] = molecular target: T3, human PILRA G78 on HEK293F cells; test: FACS on HEK293F cells, binding on human PILRA (hA) over human PILRB (hB)
Experimental: (§4) Conditioned media samples containing the tested anti-PILRA antibodies were assessed for binding to HEK293F cells overexpressing human PILRA (hA), human PILRB (hB), and cynomolgus PILRA (cA) by FACS. The conditioned media containing the tested antibodies were incubated with the cells for 30 min at 4° C., washed twice, and then detected with goat anti-human IgG secondary antibody (Alexa Fluor 647) at 1:1000 dilution. The cells were analyzed by flow cytometry on FACS Canto II, and for all cell lines, the reported MFI values were calculated for each conditioned media. These antibodies were evaluated for nonspecific binding using a baculovirus particle (BVP) assay (Jain T., Sun T., Durand S., Hall A., Houston N. R., Nett J. H., Sharkey B., Bobrowicz B., Caffry L, Yu Y., et al. Biophysical properties of the clinical-stage antibody landscape. Proc. Natl. Acad. Sci. USA. 2017; 114:944-949. Doi: 10.1073/pnas.1616408114.). The BVP scores are listed in Table 9, and the higher the score the more nonspecific binding that occurred.

[9] = molecular target: T6, human PILRB on HEK293F cells (human, UniProt Q9UKJ0 20-227); test: hB Kd of Table 9; method not stated (Example 8: HEK293F overexpressing cells, FACS)
T6 construct: also called hB

[10] = molecular target: T7, recombinant human PILRB (human, UniProt Q9UKJ0 20-191); test: SPR, Biacore T200, antibody captured by anti-Fab
Experimental: (§5) A subset of these antibodies was further evaluated using the Biacore T200 (Cytiva). Anti-PILRA antibodies were diluted to 10 μg/mL and captured using an anti-Fab (Cytiva, #28958325) surface on a CM4 chip, that was prepared by amine coupling according to the manufacturer's protocol. Human PILRA and cynomolgus PILRB were diluted in running buffer to 130 nM, and diluted 4-fold serially, twice, to 8 nM. Human PILRB was similarly diluted from 260 nM to 16 nM. These analytes were injected and allowed 2 minutes of association, followed by dissociation for 5 minutes.
(§6) Data were analyzed using Biacore evaluation software to generate kinetic constants. The equilibrium dissociation constants (KD) were calculated from the fitted association and dissociation rate constants (k-on and k-off) for each of the anti-PILRA antibodies. These Kn values are indicated with asterisks in Table 8 below.

[11] = molecular target: T2, recombinant human PILRA; test: SPR, Biacore T200, antibody captured by anti-Fab
Experimental: as §5, §6

[12] = molecular target: T3, human PILRA G78 on HEK293F cells; test: flow cytometry; HEK293F cells overexpressing human PILRA, goat anti-human IgG Alexa Fluor 647
Experimental: as §4

[13] = molecular target: T4, cell surface PILRA on human monocytes; test: flow cytometry; Alexa Fluor 647-conjugated antibody on human CD14+ monocytes, Fc receptors blocked, 30 min on ice
Experimental: as §3

[14] = molecular target: T7, recombinant human PILRB; test: SPR, Carterra LSA, steady-state fit
Experimental: as §1, §2
For the human PILRB interactions, the binding was too weak and heterogenous for kinetic constants to be calculated in this assay. Therefore, steady-state affinities were estimated based on the binding level of each analyte concentration at the end of the injections.

[15] = molecular target: T5, cynomolgus PILRA on HEK293F cells; test: flow cytometry; HEK293F cells overexpressing cynomolgus PILRA, goat anti-human IgG Alexa Fluor 647

T3 sequence (Q9UKJ1 20-303 R78G): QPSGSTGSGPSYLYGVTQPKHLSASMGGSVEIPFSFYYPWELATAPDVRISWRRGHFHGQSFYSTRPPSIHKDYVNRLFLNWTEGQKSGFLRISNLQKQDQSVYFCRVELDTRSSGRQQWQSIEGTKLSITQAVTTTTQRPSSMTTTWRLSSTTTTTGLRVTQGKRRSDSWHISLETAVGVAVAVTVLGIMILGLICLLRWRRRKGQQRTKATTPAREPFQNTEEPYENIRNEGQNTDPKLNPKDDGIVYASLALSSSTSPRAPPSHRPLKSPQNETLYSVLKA
T1 sequence (chain, as listed by the source limits assumed): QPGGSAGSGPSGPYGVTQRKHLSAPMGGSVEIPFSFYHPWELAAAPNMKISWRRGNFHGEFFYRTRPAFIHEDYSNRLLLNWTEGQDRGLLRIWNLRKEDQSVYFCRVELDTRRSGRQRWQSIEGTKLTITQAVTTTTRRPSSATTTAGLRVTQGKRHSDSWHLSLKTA
T2 sequence (Q9UKJ1 20-197 limits assumed): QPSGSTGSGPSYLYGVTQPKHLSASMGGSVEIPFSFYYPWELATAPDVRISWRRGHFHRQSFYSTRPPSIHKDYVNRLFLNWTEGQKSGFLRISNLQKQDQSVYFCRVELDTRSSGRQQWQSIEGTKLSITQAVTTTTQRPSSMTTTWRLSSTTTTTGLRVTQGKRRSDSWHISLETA
T6 sequence (Q9UKJ0 20-227): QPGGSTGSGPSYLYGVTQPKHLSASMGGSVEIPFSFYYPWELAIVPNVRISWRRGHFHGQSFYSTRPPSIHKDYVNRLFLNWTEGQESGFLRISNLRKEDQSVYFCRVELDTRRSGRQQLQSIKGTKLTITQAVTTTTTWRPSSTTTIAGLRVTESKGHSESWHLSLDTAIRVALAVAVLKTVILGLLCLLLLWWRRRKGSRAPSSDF
T7 sequence (Q9UKJ0 20-191 limits assumed): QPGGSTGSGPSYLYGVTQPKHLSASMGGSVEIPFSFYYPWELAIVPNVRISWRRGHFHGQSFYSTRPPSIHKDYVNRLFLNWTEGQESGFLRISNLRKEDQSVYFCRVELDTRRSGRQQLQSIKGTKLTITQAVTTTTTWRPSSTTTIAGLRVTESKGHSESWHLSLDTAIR
T4 sequence (Q9UKJ1 20-303): as the sequence (Q9UKJ1 20-303 R78G) above, with G59R counted along it
T5 sequence (A0A7N9CRU1 entry or part of it): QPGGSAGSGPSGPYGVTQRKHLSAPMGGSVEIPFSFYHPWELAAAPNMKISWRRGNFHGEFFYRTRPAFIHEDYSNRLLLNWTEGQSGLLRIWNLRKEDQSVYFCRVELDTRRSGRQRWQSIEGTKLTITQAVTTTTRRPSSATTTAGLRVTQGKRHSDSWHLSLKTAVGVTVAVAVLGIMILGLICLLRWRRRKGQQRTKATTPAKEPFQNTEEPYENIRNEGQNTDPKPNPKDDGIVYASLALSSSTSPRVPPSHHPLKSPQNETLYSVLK

Binder | Kd [1] | Kd [2] | Kd [3] | IC50 (read off the curve) [4] | EC50 (read off the curve) [5] | Kd [6] | Hu Mono DR EC50 [7] | hA/hB binding ratio on HEK293F [8] | Kd [9] | Kd [10] | Kd [11] | EC50 (read off the curve) [12] | EC50 (read off the curve) [13] | Kd [14] | EC50 (read off the curve) [15]
B1 | 1.6 nM | 2.5 nM | 0.4 nM | ~0.07 µg/mL | ~0.1 µg/mL | 5.3 nM | 0.02 µg/mL | 56.7 | 126 nM | 128 nM | 1.6 nM | ~0.3 µg/mL | ~0.2 µg/mL | 39 nM | –
B2 | 1.5 nM | 3.5 nM | 0.8 nM | – | ~0.1 µg/mL | 8.9 nM | 0.1 µg/mL | 71.1 | 216 nM | 157 nM | 3.1 nM | – | – | 53 nM | ~0.6 µg/mL
B3 | 0.3 nM | 4.8 nM | 1.6 nM | – | ~0.1 µg/mL | 2.3 nM | 0.3 µg/mL | 79.8 | – | 142 nM | 3.4 nM | ~0.3 µg/mL | ~0.2 µg/mL | 80 nM | ~0.5 µg/mL
B4 | 0.2 nM | 1.3 nM | 0.1 nM | – | ~0.1 µg/mL | 0.2 nM | ~0.02 µg/mL | 6.5 | 3.4 nM | – | – | ~0.5 µg/mL | – | 4 nM | –
